Here are results for two molecules from article PMC3155514, “Subunit Interface Residues F129 and H294 of Human RAD51 Are Essential for Recombinase Function”.

The term Kd denotes the free concentration of one partner at which half of the binding sites on the other are occupied at equilibrium, for simple one-to-one binding.

Data set [1] addresses T1, HsRAD51 wild type (Homo sapiens, UniProt Q06609 1-339). In words: SPR; ADP (2.5 mM); SPR (Biacore 3000): 20 mM HEPES pH 7.5, 10% glycerol, 1 mM DTT, 1 mM MgCl2, 0.005% P-20, 2.5 mM indicated nucleotide, 150 mM KCl when indicated (text: salt similar to strand exchange), 25 C, 100 nM-1.6 uM protein. The conditions noted are these: protein: recombinant; chain copies: 10; label: 5' biotin; single strand. For orientation: SPR reads the build-up and loss of mass on a sensor chip optically.

Data set [2] has as its target T1, HsRAD51 wild type. In words: SPR; ATP (2.5 mM); SPR (Biacore 3000): 20 mM HEPES pH 7.5, 10% glycerol, 1 mM DTT, 1 mM MgCl2, 0.005% P-20, 2.5 mM indicated nucleotide, 150 mM KCl when indicated (text: salt similar to strand exchange), 25 C, 100 nM-1.6 uM protein. The conditions noted are these: protein: recombinant.
The target in data set [3] is T1, HsRAD51 wild type. In words: SPR; no nucleotide; SPR (Biacore 3000): 20 mM HEPES pH 7.5, 10% glycerol, 1 mM DTT, 1 mM MgCl2, 0.005% P-20, 2.5 mM indicated nucleotide, 150 mM KCl when indicated (text: salt similar to strand exchange), 25 C, 100 nM-1.6 uM protein. The conditions noted are these: protein: recombinant.
Data set [4] has as its target T2, HsRAD51(H294V) (Homo sapiens, UniProt Q06609 1-339, H294V). Described as above. The conditions noted are these: protein: recombinant; chain copies: 10; label: 5' biotin; single strand.
Data set [5] concerns the target T3, HsRAD51(F129V) (Homo sapiens, UniProt Q06609 1-339, F129V). In words: SPR; ADP (2.5 mM); rapid dissociation; SPR (Biacore 3000): 20 mM HEPES pH 7.5, 10% glycerol, 1 mM DTT, 1 mM MgCl2, 0.005% P-20, 2.5 mM indicated nucleotide, 150 mM KCl when indicated (text: salt similar to strand exchange), 25 C, 100 nM-1.6 uM protein. The conditions noted are these: protein: recombinant; chain copies: 10; label: 5' biotin; single strand.

For data set [6], the target named is T2, HsRAD51(H294V). The data set is described as above. The conditions noted are these: protein: recombinant; chain copies: 10; label: 5' biotin; single strand.
For data set [7], the target named is T3, HsRAD51(F129V). In words: SPR; ADP (2.5 mM); SPR (Biacore 3000): 20 mM HEPES pH 7.5, 10% glycerol, 1 mM DTT, 1 mM MgCl2, 0.005% P-20, 2.5 mM indicated nucleotide, 150 mM KCl when indicated (text: salt similar to strand exchange), 25 C, 100 nM-1.6 uM protein. The conditions noted are these: protein: recombinant; chain copies: 16; label: 5' biotin on strand 1; blunt.

[8] abbreviates: chain copies: 10, label: 5' biotin, single strand.
[9] abbreviates: chain copies: 16, label: 5' biotin on strand 1, blunt.

T1 sequence (Q06609 whole entry): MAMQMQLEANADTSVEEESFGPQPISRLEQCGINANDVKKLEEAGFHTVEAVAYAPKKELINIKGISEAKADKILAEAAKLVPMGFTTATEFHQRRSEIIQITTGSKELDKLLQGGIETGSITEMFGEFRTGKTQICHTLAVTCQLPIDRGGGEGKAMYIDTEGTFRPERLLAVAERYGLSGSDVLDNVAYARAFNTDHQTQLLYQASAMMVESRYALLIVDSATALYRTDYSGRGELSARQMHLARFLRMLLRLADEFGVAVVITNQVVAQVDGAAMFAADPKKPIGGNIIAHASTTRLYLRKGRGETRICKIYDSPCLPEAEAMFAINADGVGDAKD
T3 sequence (Q06609 whole entry F129V): as the sequence (Q06609 whole entry) above, with F129V counted along it
T2 sequence (Q06609 whole entry H294V): as the sequence (Q06609 whole entry) above, with H294V counted along it

On to TTTTTTTTTTTTTTTTTTTTTTTTTTTTTTTTTTTTTTTTTTTTTTTTTT (ssDNA) [dT50], for which the Kd is 20 nM in the data set with HsRAD51 wild type [1]; 90 nM with HsRAD51 wild type [2] (setting [8]); 15 nM with HsRAD51 wild type [3] (setting [8]); 28 nM with HsRAD51(H294V) [4]; 54 nM in the data set with HsRAD51(F129V) [5]; 43 nM in the data set with HsRAD51(H294V) [6].

B1: 50 bp dsDNA (dsDNA)
DNA 1: TCGAGAGGGTAAACCACAATTATTGATATAAAATAGTTTTGGGTAGGCGA
DNA 2: TCGCCTACCCAAAACTATTTTATATCAATAATTGTGGTTTACCCTCTCGA
With B1, the figures for the dissociation constant (Kd) with HsRAD51(F129V) [7], in the data set with HsRAD51 wild type [2] (setting [9]) and in the data set with HsRAD51 wild type [3] (setting [9]) were 446 nM, 262 nM and 264 nM, respectively.
